In the DeepSol protein solubility set:

test: soluble on expression in E. coli; label from the status in PepcDB or PDB records

Soluble on expression in E. coli, soluble:
GPLGSAQTLQMEIPNFGNSILECLNEQRLQGLYCDVSVVVKGHAFKAHRAVLAASSSYFRDLFNNSRSAVVELPAAVQPQSFQQILSFCYTGRLSMNVGDQDLLMYTAGFLQIQEIMEKGTEFFLKVSS
MSLENISETLRTLMNRKNLNHRYEALMTAVYQDPDVRQFLAAHQNELSSDALERSAAKLYEFCEEKRKIARHEPTQAPGYQPTLVMSNHLIDIAYQPTPQMQEQQAAHALQQRVRSISMPKNIQTADLKTYDQDGDRATALMAALDFIDAYTQAPKRFHRGLYLYGSFGVGKTYLLGGMANALAAKGFNTTLIHFPSFAVEMKRSISNNTSADKVDAIKRAPILMIDDIGADASSTWIRDDVLGVILEYRMQEELPTCFSSNFSMQELQDGYLTLSQKGDEEPVKAQRIMQRVRYLASEIEMVGRNRRLNPDAEGHHHHHH
SVKRKSSEGQEQDGGRGIPLPIQTFLWRQTSAFLRPKLGKQYEASCVSFERVLVENKLHGLSPALSEAIQSISRWELVQAALPHVLHCTATLLSNRNKLGHQDKLGVAETKLLHTLHWMLLEAPQDCNNERFGGTDRGSSWGGSSSAFIHQVENQGSPGQPCQSSSNDEEENNRRKIFQNSMATAELFVFLFAPLVHRIKESDLTFRLASGLVIWQPMWEHRQPGVSGFTALVKPIRNIITAKRSSPINSQSRTCESPNQDARHLEGLQVVRETFQSDSISPKATISGCHRGNSFDGSLSSQTSQERGPSHSRSTFHFPP
GPGSMPPTHLLPTIDVSLRDKLSRFVESRGLLQMALEIATDDERRFDLAVQLKQLLLAHEIASAANVASHWKQVGDIALEQGYFEMAIESLEKCNDWSGLLLIYTSLNDMEAISRLGDRCLQRGQANLAFTCYHLTQRHAECVELLQKTGKTGDAAFYARTYYPSLIEDAVAKWRVSVASIPRVSQALASPAAYPNLFPSLRNVDLLPPKGSEADAPLNAQPPPPGASASLHGSCTAPTVADWFQPAAAAPQQLMHPPPLPDNVDSEPSGMQELADEEETWGED
MAHHHHHHVREEKLRLRKQIIEHMNSLSKERYTTLSEQIVFSLYEQKEWAEAKTIGITLSMENEVNTYPIIEKAWKEGKRVVVPKCNKETRTMSFRQISNFDQLETVYMNLREPIPALTEEVNADEIDLQIVPGVAYTERGERIGYGGGYYDRYLVHYKGKTLSLAYSFQMVEHIPVEPFDKNVEKIITEKGTMVKNGLV
EGGEPCACPHALHRVCGSDGETYSNPCTLNCAKFNGKPELVKVHDGPCEPDEDEDVCQECDGDEYKPVCGSDDITYDNNCRLECASISSSPGVELKHEGPCRT
VAKQRPDGIRAYEDPAGGWGALKALAVALKDQQLVVEGIPTLLKQNQPEGFDCPGCAWPDPKHTSAFEFCENGAKAVTWESTPKRVGPDFFAQHTVTSLWECSDYWLEDQGRLTHPMRYDAQTDKYEPVDWQVAFDDIAAKLDALDDPNQLELYTSGRASNEAAFLFQLFGRQFGTNNFPDCSNMCHEPTSVGLPRSIGIGKGTVTLDDFDKAELIISMGHNPGTNHPRMMTPLRNASRRGVKIIVLNPLKERALERFEAPQAPLEMATTSSTPIASCYFQVKVGGDAAALKGICKALVAADKVARAADLAPLLDHTFIVGHTAGFDALVDDLEGCSWSAIERASGLPRADMERIAADYAASNATIVCYGMGITQHVTGTANVQQIANLLLLKGNIGKPGAGICPLRGHSNVQGDRTVGITERPSEAFLDRLRDVFGFEPPRAFGHSVVDSIAAMRDGRAKAVICLGGNLAMAASDPQACFKGFRRLDLAVHLATKLNRTHLLTSKTTYLFPVLGRTDSDIQASGRQALTVEDSMSMVHASRGFLTPPSDQVRSEVAILAGIAKATLRSKSRVDWDALAGNYDLIRDAIEEVFPDFEAYNDRIRKPGGFQLPNSAAMRIWNTPTGKANFAIFAGLEEDETSTDRDVLRMTSLRAHDQYNTTIYGLNDRYRGVFGRRDVLFLNPKDLARLGFAEGDVVDVATALDYARPDRVVQALTLVSYNLPDGCCASYYPEIQPLVALEFRDPECLTPSYKSIPVKVTAARAPLAADRAVGRDGIVGREPGVETATGPSPVSLID

Soluble on expression in E. coli, not soluble:
MAKYCLKKTSKRVSCAKRYKIEKKVRDHNRKVKKEAKKNGTTNKKEKTISVPNSCPFKEEILVQAEQEREKIKVRQEAAKEAAKIHRIEKRKNNLPANFESMVAKASKQGTEFDKKVASAAEHEKFNTLDDKTIKAYASEVRKTVEIADVIIQVLDARDPLGSRSKSVEDQVLKGGKRLVLLLNKIDLVPRENVQKWLEYLRGQFPTIAFKASTQEQKSNIGRFNSAILNNTETSKCVGADIVMKILANYCRNKDIKTSIRVGVVGFPNVGKSSVINSLKRRKACNVGNLPGITKEIQEVELDKNIRLIDSPGVILVSQKDLDPIEVALKNAIRVDNLLDPIAPVHAILRRCSKETIMLHYNLADFNSVDQFLAQLARRIGKLRRGARPDVNAAAKRVLNDWNTGKLRYYTHPPEQGTAKEDIVVPAEVVSQFSKEFDIDAIAEEQNQIVEGLPMESDIIAPHNSDEEEDDDDEMETDVNEKKQTVTSGRKVKGPTKDDDKPVLPESLALEGNVQLNKLIKTAIKKQKKKSKKTANRADKLSDSLGNMLGGDAMEM
MRIEAHQVFNVSIQLCEFFNVDLSDRGYYQIRLRPRKTAEIGSVDISHDTEGDRDTGPKTSSNILLAHVYQGAAVSKTVEVTYQHEKFNLDDWFHISVQFNSTLNLCEPQKLEIEIELLYMDRYHPPQYESFVKITKRIVEIPLDPTRLVAAARSLYFDSTYLSAITMSVFSSLVMVATRQRKANASESASSTKSTKLRRVYNSSAHALLFATRSIQQFIVNNSRLINASVSVVVLDVQTEMKAALQQFDSSDHPTRCVETDVCEWSTKITLIYQQMLILFRKSKELNQQLLLIFDKQRRAVFREAFWINERPIDKCLIRTPVSVLEHYKSIIKVDYLRKLPRCTIFCEETDCPGEFCPIIFEDVFTRNSVGLLDLNNANRQVTIPNSASMPVVKAHEKHKSFREKLRNETRKLIHPRRKSLDCSQSLSRKLDGGVTSRSRTKTLKETTSTDGGGGLLLKNIPNSQENNFSPEFPGPSRDTATESPSCSSEPIASPSPSSEFGRCSAAGELFQDDGIPLISKESVTSEEIANALRTSVSADDVLSCRVTSSTDMKLTEEHPKDRMAEFELLREREAAKKMLRQQTNYEGHLYSEQSGRSTAGPVCTPIKSSLVIGDPVVRSKNKTHLVVFVHGLEGSQEDLVPFRCGLDQAIAAHYHCIQMEGRDFDEEPWAFEYLMSSANRSQTWADITTMAHNLLSEVREYVEEARNDIQRISFLAHSLGGVIVRSAVGLAPEVEMQWMIDRCYTLMTINSPHLGLAYVQKHIHWGVQFVKWWKKSRSMEQLSFRDSVDFASSFVYKTSLNNACGKFKNILLVGTPHDQLVPYMSSLLVPSKISSEDQSQFGEAYREMMTACLSSIQNSEKSENLVRYTTFHQLGSSNTQKITGRAAHVIALEDSVFIEKLFNISAVRYFV
MSSENDFVEFSSMFERIIQGRGDGLSRFLPVIVALAAREDDDDQGSTDQTTRRGDPLSPRFVMIGSRSGLDDFFSDGGKQGRSPALKSEVENMPRVVIGEDKEKYGGSCAICLDEWSKGDVAAEMPCKHKFHSKCVEEWLGRHATCPMCRYEMPVEEVEEEKKIGIWIGFSINAGDRRN
MTKVQKRLFEVADKQYALFQAKLIPNIPQERVIGVRVPVLRKIAREFEKEPECRDFLNTLPHAYYDENMLHSILLSNVKNYEECIAAVEAFLPYVDNWAVCDTLRPKVFGKHKDKLLPRIKDWIASDKTYTCRFGIGMLMMHYLDKDFKPEYLELPQKVDSEEYYVKMMIAWFYATALANQWDATIPYIEEHRLSDWVHKKTIQKACESYRITDEQKAYLKTLR
ERRQGIAGVKGNQLQLMTESDDVMQALIRDIQLARHNIEMVFYIWQPGGMADQVAESLMAAARRGIHCRLMLDSAGSVAFFRSPWPELMRNAGIEVVEALKVNLMRVFLRRMDLRQHRKMIMIDNYIAYTGSMNMVDPRYFKQDAGVGQWIDLMARMEGPIATAMGIIYSCDWEIETGKRILPPPPDVNIMPFEQASGHTIHTIASGPGFPEDLIHQA
MPELAISTDKVAFLIEKAREFDVKEGESDADSGSNGADDDMVDVLEDTGDDPVVQEISGFIAAMTEEEQIDLVALMRLGRGDGSIEEWDDLRREAAEGRNGRTARYLLGEPLLGDYLADGLDQFGLSWSDERTTPVV
